Experimental data as given in patent US20250114450A1, “PHARMACEUTICAL COMBINATION CONTAINING ANTI-PD-1-ANTI-VEGFA BISPECIFIC ANTIBODY, AND USE THEREOF” (Akeso Biopharma, Inc., priority 2021, published 2025).

Tests used:
[1] = tested on: SK-OV-3 human ovarian cancer cells; assay type: in vivo; details: VP101(hG1DM) 14 mg/kg weekly, olaparib 100 mg/kg daily, alone or in combination; FIG. 41
Excerpt: 39 days after grafting, the mice were intraperitoneally injected with 3 million activated PBMCs and randomly divided into 4 groups of 6 animals by tumor volume. The day of grouping was defined as D0, and dosing was started on the day of grouping D0. The regimen of the combination therapy group is as follows: the drugs were formulated separately and administered sequentially (no certain order or time interval was required, and one treatment should be given after the completed administration of the other). After the administration, the length and width of tumors in each group were measured, and the tumor volume was calculated.

[2] = tested on: MDA-MB-231 cells (human breast cancer cells); assay type: in vivo; details: VP101(hG1DM) 3 mg/kg weekly, olaparib 50 mg/kg daily, alone or in combination; FIG. 39
Excerpt: 23 days after grafting, the mice were randomly divided into 4 groups of 6 animals by tumor volume. The day of grouping was defined as DO, and olaparib dosing was started on day D0. […] The regimen of the combination therapy group is as follows: the drugs were formulated separately and administered sequentially (no certain order or time interval was required, and one treatment should be given after the completed administration of the other). After the administration, the length and width of tumors in each group were measured, and the tumor volume was calculated.

[3] = tested on: CHO-K1-PD1 cells overexpressing PD-1; test: ADCP activity assay, murine macrophages and CHO-K1-PD1 cells, flow cytometry; assay type: cell-based; details: murine macrophages + CHO-K1-PD1-CFSE cells, antibody 10, 1 and 0.1 μg/mL, 2 h, vs isotype control; FIG. 35
Description: The method is as follows:
The femoral bone marrow of C57 mice (purchased from Guangdong Medical Laboratory Animal Center) was first aseptically collected and lysed by erythrocyte lysis buffer on ice for 5 min. The lysis was terminated with DMEM complete medium (containing 10% FBS), and the lysate was centrifuged at 1000 rpm and washed twice. The cell pellet was resuspended in 10 mL of DMEM complete medium and M-CSF was added at a working concentration of 100 ng/mL. The cells were cultured for 7 days at 37° C. and 5% CO2 in a cell culture chamber for induction. Half of the medium was exchanged and M-CSF was added on Days 3 and 5. The induction of cells was completed on day 7. […] The supernatant was discarded and the cells were suspended in DMEM complete medium (containing 10% FBS) and counted. […] CHO-K1-PD1 cells were collected by conventional methods, centrifuged at 170×g for 5 min, resuspended, counted, analyzed for viability and washed once with PBS. […] The cells were counted, transferred to a 96-well plate and centrifuged at 1000×g for 5 min, and the supernatant was discarded. […]
Macrophages in the system were APC^+ positive, and macrophages involved in phagocytosis were APC and CFSE dual positive. The phagocytosis rate was determined as the ratio of the number of dual positive cells to the number of APC positive cells, and the antibody-mediated ADCP activity was evaluated. […]

FcγRIIa_H131 = target: T1, FcγRIIa_H131 (Homo sapiens, UniProt P12318); test: Affinity constant assay to FcγRIIa_H131 (Fortebio Octet); details: FcγRIIa_H131 immobilized on NTA sensor, antibody 12.5-200 nM, 30° C., 1:1 model; N/A = no binding or extremely weak binding signal
T1 sequence (P12318 34-217 limits assumed): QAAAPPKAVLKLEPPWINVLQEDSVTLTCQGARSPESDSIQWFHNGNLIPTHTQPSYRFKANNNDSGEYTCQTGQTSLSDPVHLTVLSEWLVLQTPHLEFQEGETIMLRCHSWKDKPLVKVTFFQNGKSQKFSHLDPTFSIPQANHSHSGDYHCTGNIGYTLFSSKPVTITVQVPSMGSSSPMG
Description: The antibody was dissociated in the buffer for 60 s. The sensor was refreshed in 10 mM glycine pH 1.7 and 10 nM nickel sulfate. […] The data were analyzed by 1:1 model fitting to obtain affinity constants.

FcγRIIIa_F158 = FcγRIIIa_F158 (Homo sapiens, UniProt P08637); test: Affinity constant assay to FcγRIIIa_F158 (Fortebio Octet); details: FcγRIIIa_F158 immobilized on HIS1K sensor, antibody 31.25-500 nM, 30° C., 1:1 model; N/A = no binding or extremely weak binding signal
Description: 5 μg/mL FcγRIIIa_F158 was immobilized on the HIS1K sensor for 120 s. The sensor was equilibrated in a buffer for 60 s, and the binding of the immobilized hFcGR3A(F158)-his on the sensor to the antibodies at concentrations of 31.25-500 nM (serial two-fold dilution) was determined for 60 s. The antibody was dissociated in the buffer for 60 s. The sensor was refreshed 4 times in 10 mM glycine pH 1.5, each for 5 s. The detection temperature was 30° C. and the frequency was 0.3 Hz. The data were analyzed by 1:1 model fitting to obtain affinity constants.

FcγRI = FcγRI (Homo sapiens, UniProt P12314); test: Affinity constant assay to FcγRI (Fortebio Octet); details: N/A = no binding or extremely weak binding signal
Description: 1 μg/mL FcγRIa was immobilized on the HIS1K sensor for 50 s. The sensor was equilibrated in a buffer for 60 s, and the binding of the immobilized CD64 on the sensor to the antibodies at concentrations of 3.12-50 nM (two-fold dilution) was determined for 120 s. The antibody was dissociated in the buffer for 120 s. The sensor was refreshed 4 times in 10 mM glycine pH 1.5, each for 5 s. The detection temperature was 30° C. and the frequency was 0.3 Hz. The data were analyzed by 1:1 model fitting to obtain affinity constants.

C1q = C1q (Homo sapiens, UniProt P02745+P02746+P02747); test: Affinity constant assay to C1q (Fortebio Octet); details: antibody immobilized on FAB2G sensor, C1q 0.625-10 nM, 30° C., 1:1 model; N/A = no binding or extremely weak binding signal
Description: 50 μg/mL antibody was immobilized on the FAB2G sensor at an immobilization height of about 2.0 nm. […] The antigen and antibody were dissociated in the buffer for 60 s. The sensor was refreshed 4 times in 10 mM glycine pH 1.7, each for 5 s. The shaking speed of the sample plate was 1000 rpm, the temperature was 30° C. and the frequency was 0.6 Hz. The data were analyzed by 1:1 model fitting to obtain affinity constants. The data acquisition software was Fortebio Data Acquisition 7.0, and the data analysis software was Fortebio Data Analysis 7.0.

FcγRI, sequence (P12314 16-374): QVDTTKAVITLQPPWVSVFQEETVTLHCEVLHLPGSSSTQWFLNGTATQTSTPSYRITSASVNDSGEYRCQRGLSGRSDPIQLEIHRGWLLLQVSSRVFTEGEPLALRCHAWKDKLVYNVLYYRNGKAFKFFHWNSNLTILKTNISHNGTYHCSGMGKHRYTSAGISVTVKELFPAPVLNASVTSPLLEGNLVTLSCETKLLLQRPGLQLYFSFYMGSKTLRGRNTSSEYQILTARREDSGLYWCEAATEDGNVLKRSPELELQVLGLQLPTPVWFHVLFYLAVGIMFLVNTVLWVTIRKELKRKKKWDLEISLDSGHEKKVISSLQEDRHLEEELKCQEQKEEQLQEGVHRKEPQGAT
C1q, sequence (P02745 23-245): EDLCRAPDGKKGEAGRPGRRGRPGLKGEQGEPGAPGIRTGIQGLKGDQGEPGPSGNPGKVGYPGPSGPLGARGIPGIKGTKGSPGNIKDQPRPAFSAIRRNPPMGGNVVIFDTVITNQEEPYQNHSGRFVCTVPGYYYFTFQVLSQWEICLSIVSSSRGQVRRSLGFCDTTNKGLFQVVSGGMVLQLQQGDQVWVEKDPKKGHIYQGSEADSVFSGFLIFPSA
C1q, sequence (P02746 28-253): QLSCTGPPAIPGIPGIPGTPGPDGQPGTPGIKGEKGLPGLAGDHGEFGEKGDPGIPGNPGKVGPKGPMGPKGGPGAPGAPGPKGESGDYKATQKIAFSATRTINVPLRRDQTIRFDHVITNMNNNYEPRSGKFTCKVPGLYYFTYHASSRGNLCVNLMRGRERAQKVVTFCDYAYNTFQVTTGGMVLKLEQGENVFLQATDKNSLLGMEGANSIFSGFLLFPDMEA
C1q, sequence (P02747 29-245): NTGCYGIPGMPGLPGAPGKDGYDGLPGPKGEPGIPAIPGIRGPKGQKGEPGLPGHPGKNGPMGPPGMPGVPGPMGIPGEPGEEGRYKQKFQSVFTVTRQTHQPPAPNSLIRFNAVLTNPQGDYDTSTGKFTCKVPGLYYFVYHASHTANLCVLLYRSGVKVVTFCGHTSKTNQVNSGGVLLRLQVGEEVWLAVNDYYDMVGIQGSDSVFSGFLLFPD
FcγRIIIa_F158, sequence (P08637 17-208 limits assumed): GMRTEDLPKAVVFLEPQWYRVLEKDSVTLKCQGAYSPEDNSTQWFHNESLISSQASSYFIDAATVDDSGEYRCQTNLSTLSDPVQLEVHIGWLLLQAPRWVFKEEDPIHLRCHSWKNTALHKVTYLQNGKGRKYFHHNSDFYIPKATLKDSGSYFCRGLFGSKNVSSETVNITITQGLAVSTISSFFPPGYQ

O=C(c1cc(Cc2n[nH]c(=O)c3ccccc23)ccc1F)N1CCN(C(=O)C2CC2)CC1 [olaparib]
tolerability / body weight of tumor-bearing mice [1]: no effect on the body weight
tolerability / body weight of tumor-bearing mice [2]: no effect on the body weight

Nivolumab: approved PD-1 antibody (Opdivo) purchased from BMS as a reference antibody
ADCP activity (phagocytic rate, P %) [3]: significant ADCP effect
KD (affinity constant) to FcγRIIa_H131 (FcγRIIa_H131): no binding or an extremely weak binding signal
KD (affinity constant) to FcγRIIIa_F158 (FcγRIIIa_F158): no binding or an extremely weak binding signal
Kd (FcγRI; FcγRIa immobilized on HIS1K sensor, antibody 3.12-50 nM, 30° C., 1:1 model): 6.2 nM
Rmax to FcγRI (FcγRI): 0.48-0.53 nm
kdis to FcγRI (FcγRI): 0.00432 s⁻¹
KD (affinity constant) to C1q (C1q): no binding or an extremely weak binding signal
